Experimental data taken from patent US20240415889A1 (UNIVERSITY OF PITTSBURGH OF THE COMMONWEALTH SYSTEM OF …, published 2024).

How the values were obtained:
[1] = target: T1, single chain CD94/NKG2C-Fc (human); assay: indirect ELISA, coated CD94/NKG2C-Fc
T1 construct: also called CD94/NKG2C polypeptide; single chain CD94/NKG2C polypeptide; not shown: Fc
Description: (§1) Binding and specificity of Fab or IgG to single chain CD94/NKG2A-Fc or single chain CD94/NKG2C-Fc were analyzed through indirect ELISA. Briefly, Fc-fused proteins were coated on a 96 well plate (Corning, 3690) at 200 ng/well (50 μL volume) in PBS for 2 hours at room temperature. Blocking was carried out with 3% BSA in PBS for overnight at 4° C. Next day, various concentration of Fab or IgG was applied to antigen coated plates and incubated for 1 hour at 25° C. After three times washing, anti-FLAG mouse antibody (M2 clone)-HRP conjugated (Sigma, A8592, 1:3000 dilution) or anti-human kappa goat antibody-HRP conjugated (Invitrogen, A18853, 1:3000 dilution) was applied to detect binding of either Fab or IgG. Same volume of TMB (Thermo, PI34028) was added as a substrate, and then enzymatic reactions were stopped by adding of 2N […].

[2] = target: T2, single chain CD94/NKG2A-Fc (CD94/NKG2A-IgG1 fusion polypeptide) (human); assay: indirect ELISA, coated CD94/NKG2A-Fc
T2 construct: Biotinylated in the panning and BLItz experiments; also called CD94/NKG2A polypeptide; recombinant CD94/NKG2A polypeptide; not shown: human IgG1 Fc
Description: as §1

[3] = target: T3, CD94/NKG2A on the surface of primary human NK cells (human, UniProt Q13241 1-179; P26715 1-233); assay: flow cytometry on primary NK cells, 10 nM antibody
T3 construct: Endogenous receptor on primary NK cells enriched from normal human PBMCs; also called intact NKG2A receptor on the surface of NK cell; cell surface NKG2A
Description: For investigation of NKG2A expression level of NK cells, enriched NK cells were activated with 50 IU/mL of hIL-2 and treated with the indicated antibodies (100 nM) for 24 hours at 37° C. After incubation with antibodies, cells were washed with cold PBS, and then the cell surface NKG2A was detected using a FITC- or PE-conjugated anti-human CD159a (NKG2A) antibody.

[4] = target: T2, single chain CD94/NKG2A-Fc …; assay: BLItz biolayer interferometry

T2 sequence (chain, as listed by the source): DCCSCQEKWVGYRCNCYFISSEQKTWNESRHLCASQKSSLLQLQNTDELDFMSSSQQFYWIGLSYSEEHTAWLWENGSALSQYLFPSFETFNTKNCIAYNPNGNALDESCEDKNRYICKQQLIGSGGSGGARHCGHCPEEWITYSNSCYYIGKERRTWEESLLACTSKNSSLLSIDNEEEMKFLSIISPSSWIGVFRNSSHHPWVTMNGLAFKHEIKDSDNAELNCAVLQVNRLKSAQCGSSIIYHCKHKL
T1 sequence (chain, as listed by the source): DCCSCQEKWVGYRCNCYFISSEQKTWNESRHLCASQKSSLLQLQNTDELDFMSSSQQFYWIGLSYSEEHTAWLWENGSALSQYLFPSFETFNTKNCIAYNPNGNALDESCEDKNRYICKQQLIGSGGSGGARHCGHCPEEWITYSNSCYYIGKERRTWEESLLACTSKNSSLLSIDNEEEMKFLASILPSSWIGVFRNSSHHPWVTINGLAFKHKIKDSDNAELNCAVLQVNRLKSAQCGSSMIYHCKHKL
T3 sequence (Q13241 whole entry, chain 1 of 2): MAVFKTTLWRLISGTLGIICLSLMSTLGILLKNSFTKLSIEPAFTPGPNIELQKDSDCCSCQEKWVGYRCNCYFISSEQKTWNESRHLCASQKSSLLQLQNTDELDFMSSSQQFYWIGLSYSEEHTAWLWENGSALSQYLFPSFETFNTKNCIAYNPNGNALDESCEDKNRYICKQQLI
T3 sequence (P26715 whole entry, chain 2 of 2): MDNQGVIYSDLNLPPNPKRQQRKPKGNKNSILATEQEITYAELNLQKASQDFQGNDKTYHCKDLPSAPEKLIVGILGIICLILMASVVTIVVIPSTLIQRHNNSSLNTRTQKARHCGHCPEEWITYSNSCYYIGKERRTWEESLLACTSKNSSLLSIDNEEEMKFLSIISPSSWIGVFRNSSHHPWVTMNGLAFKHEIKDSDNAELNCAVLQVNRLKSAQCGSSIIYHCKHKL

Binder | binding result [1] | EC50 [2] [nM] | binding result [3] | Kd [4] [nM]
Fab Clone #1 (1B2) (Fab, V domains shown, Fab from a phage library, expressed in E. coli and purified on Ni-NTA; detected in ELISA with an anti-FLAG antibody) VH: QVQLVESGGGLVKPGGSLRLSCAASGFTFSDYYMSWIRQAPGKGLEWVSYISSSGSTIYYADSVKGRFTISRDNAKNSLYLQMNSLRAEDTAVYYCARGFYMDAWGKGTTVTVSS VL: DIQMTQSPSSLSASVGDRVTITCRASQSISSYLNWYQQKPGKAPKLLIYAASSLQSGVPSRFSGSGSGTDFTLTISSLQPEDFGVYYCQYYGISPPFTFGPGTKVDIKR | no binding | 2.7 | – | –
IgG Clone #1 (1B2, IgG1-LALA-PG) (antibody, V domains shown, Human IgG1 format with L234A, L235A and P329G (LALA-PG / AAG) in the Fc; Light chain detected with an anti-human kappa antibody; also called Clone #1 IgG; 1B2 (IgG Clone #1)) VH: QVQLVESGGGLVKPGGSLRLSCAASGFTFSDYYMSWIRQAPGKGLEWVSYISSSGSTIYYADSVKGRFTISRDNAKNSLYLQMNSLRAEDTAVYYCARGFYMDAWGKGTTVTVSS VL: DIQMTQSPSSLSASVGDRVTITCRASQSISSYLNWYQQKPGKAPKLLIYAASSLQSGVPSRFSGSGSGTDFTLTISSLQPEDFGVYYCQYYGISPPFTFGPGTKVDIKR | – | – | binds | 1.1
IgG Clone #2 (1B2-6, IgG1-LALA-PG) (antibody, V domains shown, Human IgG1 format with L234A, L235A and P329G; also called Clone #2 IgG (anti-NKG2A)) VH: EVQLVESGGGLVKPGGSLRLSCAASGFTFSGYYMSWIRQAPGKGLEWLAYISNSGRTIYYADSVKGRFTISRDNSNSSLYLQMNSLRAEDTAVYYCARGFYMDAWGKGTTVTVSS VL: DIQMTQSPSSLSASVGDRVTITCRASQSISSYLNWYQQKPGKAPKLLIYAASSLQSGVPSRFSGSGSGTDFTLTISSLQPEDFGVYYCQYYGISPPFTFGPGTKVDIKR | no binding | 0.6 | – | –
